The numbers were not newly measured in paper PMC10612106, which cites them from elsewhere.

Usually Kd stands for the free concentration of one partner at which half of the binding sites on the other are occupied at equilibrium, for simple one-to-one binding.

The data set addresses MORC3 ATPase domain (Homo sapiens) (UniProt Q14149).

In the case of MORC3 CW (from UniProt Q14149), the Kd was 9 µM.
